B1: OR4K15 (parent)
chain: GUUAACGGUCAUAGGCCAUGGAAACUAGGAGCACCAUUUCGCUGCCAGUGAAGAAAUGAACAAAGAAAAUCUGGGCCAGGCAGGCAUCAAAAGAAAUAGUCUUGCGCUCAACCAGAAAGUCUGUAAUCAUUUUAAGGGUA

The variants in this data set derive from B1. Briefly: self-cleavage, relative activity (ratio to wild type); higher = more cleavage; in vitro, sequencing; the parent is a self-cleaving ribozyme.
As for GUUAACGGUCGUAGGCCAUGGAAACUAGGAGCACCAUUUCGCUGCCAGUGAAGAAAUGAACAAAGAAAAUCUGGGCCAGGCAGGCAUCAAAAGAAAUAGUCUUGCGCUCAACCAGAAAGUCUGUAAUCAUUUUGAGGGUA [A11G A134G], the self-cleavage was found to be 0.88.

Turning to GUUAACGGUCGUAGGCCAUGGAAACUAGGAGCACCAUUUCGCUGCCAGUGAAGAAAUGAACAAAGAAAAUCUGGGCCAGGCAGGCAUCAAAAGAAAUAGUCUUGCGCUCAACCAGAAAGUCUGUAAUCAUUUUCAGGGUA [A11G A134C], the self-cleavage is 0.5.

With GUUAACGGUCGUAGGCCAUGGAAACUAGGAGCACCAUUUCGCUGCCAGUGAAGAAAUGAACAAAGAAAAUCUGGGCCAGGCAGGCAUCAAAAAAAAUAGUCUUGCGCUCAACCAGAAAGUCUGUAAUCAUUUUAAGGGUA [A11G G93A], the self-cleavage amounted to 2.04.

Regarding GUUAACGGUCGUAGGCCAUGGAAACUAGGAGCACCAUUUCGCUGCCAGUGAAGAAAUGAACAAAGAAAAUCUGGGCCAGGCAGGCAUCAAAAGAAAUAGUCUUGCGGUCAACCAGAAAGUCUGUAAUCAUUUUAAGGGUA [A11G C107G], the self-cleavage worked out at 0.05.

Turning to GUUAACGGUCGUAGGCCAUGGAAACUAGGAGCACCAUUUCGCUGCCAGUGAAGAAAUGAACAAAGAAAAUCUGGGCCAGGCAGGCAUCAAAAGAAAUAGUCUUGCACUCAACCAGAAAGUCUGUAAUCAUUUUAAGGGUA [A11G G106A], the self-cleavage is 0.06.

In the case of GUUAACGGUCGUAGGCCAUGGAAACUAGGAGCACCAUUUCACUGCCAGUGAAGAAAUGAACAAAGAAAAUCUGGGCCAGGCAGGCAUCAAAAGAAAUAGUCUUGCGCUCAACCAGAAAGUCUGUAAUCAUUUUAAGGGUA [A11G G41A], the self-cleavage turned out to be 0.82.

In the case of GUUAACGGUCGUAGGCCAUGGAAACUAGGAGCACCAUUUCUCUGCCAGUGAAGAAAUGAACAAAGAAAAUCUGGGCCAGGCAGGCAUCAAAAGAAAUAGUCUUGCGCUCAACCAGAAAGUCUGUAAUCAUUUUAAGGGUA [A11G G41U], the self-cleavage was 1.91.

Take GUUAACGGUCGUAGGCCAUGGAAACUAGGAGCACCAUUUCGCUGCCAGUGAAGAAAUGAAGAAAGAAAAUCUGGGCCAGGCAGGCAUCAAAAGAAAUAGUCUUGCGCUCAACCAGAAAGUCUGUAAUCAUUUUAAGGGUA [A11G C61G]: the self-cleavage was found to be 1.

On to GUUAACGGUCGUAGGCCAUGGAAACUAGGAGCACCAUUUCGCUGCCAGUGAAGAAAUGAACAAAGAAAAUCUGGGCCAGGCAGGCAUCAAAAGAAAUAGUUUUGCGCUCAACCAGAAAGUCUGUAAUCAUUUUAAGGGUA [A11G C101U], for which the self-cleavage was 0.38.

Consider GUUAACGGUCGUAGGCCAUGGAAACUAGGAGCACCAUUUCGCUGCCAGUGAAGAAAUGAACAAAGAAAAUCUGGGCCAGGCAGGCAUCAAAAGGAAUAGUCUUGCGCUCAACCAGAAAGUCUGUAAUCAUUUUAAGGGUA [A11G A94G], for which the self-cleavage amounted to 0.95.

Regarding GUUAACGGUCGUAGGCCAUGGAAACUAGGAGCACCAUUUCGCUGCCAGUGAAGAAAUGAACAAAGAAAAUCUGGGCCAGGCAGGCAUCAAAAGUAAUAGUCUUGCGCUCAACCAGAAAGUCUGUAAUCAUUUUAAGGGUA [A11G A94U], the self-cleavage was determined as 1.2.

With GUUAACGGUCGUAGGCAAUGGAAACUAGGAGCACCAUUUCGCUGCCAGUGAAGAAAUGAACAAAGAAAAUCUGGGCCAGGCAGGCAUCAAAAGAAAUAGUCUUGCGCUCAACCAGAAAGUCUGUAAUCAUUUUAAGGGUA [A11G C17A], the self-cleavage came out at 0.61.

For the variant GUUAACGGUCGUAGGCCAUGGAAACUAGGAGCACCAUUUCGCUGCCAGUGAAGAAAUGAACAAAGAAAAUAUGGGCCAGGCAGGCAUCAAAAGAAAUAGUCUUGCGCUCAACCAGAAAGUCUGUAAUCAUUUUAAGGGUA [A11G C71A], the self-cleavage was found to be 0.71.

Take GUUAACGGUCGUAGGCCAUGGAAACUAGGAGCACCAUUUCGCUGCCAGUGAAGAAAUGAACAAAGAAAAUCUGGGCCAGGCAGGCGUCAAAAGAAAUAGUCUUGCGCUCAACCAGAAAGUCUGUAAUCAUUUUAAGGGUA [A11G A86G]: the self-cleavage amounted to 0.76.

Regarding GUUAACGGUCGUAGGCCAUGGAAACUAGGAGCACCAUUUCGCUGCCAGUGAAGAAAUGAACAAAGAAAAUCUGGGCCAGGCAGGCUUCAAAAGAAAUAGUCUUGCGCUCAACCAGAAAGUCUGUAAUCAUUUUAAGGGUA [A11G A86U], the self-cleavage amounted to 1.82.

GUUAACGGUCGUAGGCCAUGGAAACUAGGAGCACCAUUUCGCUGCCAGUGAAGAAAUGAACAAAGAAAAUCUGGGCCAGGCAGGCAUCAAACGAAAUAGUCUUGCGCUCAACCAGAAAGUCUGUAAUCAUUUUAAGGGUA [A11G A92C]: the self-cleavage worked out at 0.7.

On to GUUAACGGUCGUAGGCCAUGGAAACUAGGAGCACCAUUUCGCUGCCAGUGAAGAAAUGAACAAAGAAAAUCUGGGCCAGGCAGGCAUCAAAAGAAAUAGUCUUGCGCUCAACCAGAAAGUCUGUAAUCAUUUUAAGAGUA [A11G G137A], for which the self-cleavage came out at 0.53.

In the case of GUUAACGGUCGUAGGCCAUGGAAACUAGGAGCACCAUUUCGCUGCCAGUGAAGAAAUGAACAAAGAAAAUCUGGGCCAGGCAGGCAUCAAAAGAAAUAGUCUUGCGCUCAACCAGCAAGUCUGUAAUCAUUUUAAGGGUA [A11G A116C], the self-cleavage worked out at 0.1.

For the variant GUUAACGGUCGUAGGCCAUGGAAACUAGGAGCACCAUUUCGCUGCCAGUGAAGAAAUGAACAAAGAAAAUCUGGGCCAGGCAGGCAUCAAAAGAACUAGUCUUGCGCUCAACCAGAAAGUCUGUAAUCAUUUUAAGGGUA [A11G A96C], the self-cleavage came out at 0.82.

With GUUAACGGUCGUAGGCCAUGGAAACUAGGAGCACCAUUUCGCUGCCAGUGAAGAAAUGAACAAAGAAAAUCUGGGCCAGGCAGGCAUCAAAAGAAAUAGUCUUGCGCUCGACCAGAAAGUCUGUAAUCAUUUUAAGGGUA [A11G A110G], the self-cleavage is 0.12.

As for GUUAACGGUCGUAGGCCAUGGAAACUAGGAGCACCAUUUCGCUGCCAGUGAAGAAAUGAACAAAGAAAAUCUGGGCCAGGCAGGCAUCAAAAGAAAUAGUCUUGCGCUCAACCAGAAAGUAUGUAAUCAUUUUAAGGGUA [A11G C121A], the self-cleavage turned out to be 1.62.

GUUAACGGUCGUAGGCCAUGGAAACUAGGAGCACCAUUUCGCUGCCAGUGAAGAAAUGAACAAAGAAAAUCUGGGCCAGGCAGGCAUCAAAAGAAAUAGUCUUGCGCUCAACGAGAAAGUCUGUAAUCAUUUUAAGGGUA [A11G C113G]: the self-cleavage amounted to 0.04.

For the variant GUUAACGGUCGUAGGCCAUGGAAACUAGGAGCACCAUUUCGCUGCCAGUGAAGAAAUGAACAAAGAAAAUCUGGGCCAGGCAGGCAUCAAAAGAAAUAGUCUUGCGCUCAACCAGAAAGUCUGUAAUCAUUUUAAGGGUG [A11G A140G], the self-cleavage is 0.96.

Consider GUUAACGGUCGUAGGCCAUGGAAACUAGGAGCACCAUUUCGCUGCCAGUGAAGAAAUGAACAAAGAAAAUCUGGGCCAGGCAGGCAUCAAAAGAAAUAGUCUUGCGCUCAACCAGAAAGUCUGUAAUCAUUUUAAGGGUU [A11G A140U], for which the self-cleavage stood at 1.31.

As to GUUAACGGUCGUAGGCCAUGGAAACUAGGAGCACCAUUUCGCUGCCAGUGAAGAAAUGAACAAAGAAAAUCUGGGCCAGGCAGGCAUCAAAAGAAAUAGUCUUGCGCUCAACCGGAAAGUCUGUAAUCAUUUUAAGGGUA [A11G A114G], the self-cleavage came to 0.46.

Regarding GUUAACGGUCGUAGGCCAUGGAAACUAGGAGCACCAUUUCGCUGCCAGUGAAGAAAUGAACAAAGAAAAUCUGGGCCAGGCAGGCAUCAAAAGAAAUAGUCUUGCGCUCAACCAGAAAGUCUGUGAUCAUUUUAAGGGUA [A11G A125G], the self-cleavage worked out at 0.38.

As for GUUAACGGUCGUAGGCCAUGGAAACUAGGAGCACCAUUUCGCUGCCAGUGAAGAAAUGAACAAAGAAAAUCUGGGCCAGGCAGGCAUCAAAAGAAAUAGUCUUGCGCUCAACCAGAAAGUCUGUAUUCAUUUUAAGGGUA [A11G A126U], the self-cleavage is 1.17.

On to GUUAACGGUCGUAGGCCAUGGAAACUAGGAGCACCAUUUCGCUGCCAGUGAAGAAAUGAACAAAGAAAAUCUGGGCCAGGCAGUCAUCAAAAGAAAUAGUCUUGCGCUCAACCAGAAAGUCUGUAAUCAUUUUAAGGGUA [A11G G84U], for which the self-cleavage turned out to be 0.53.

In the case of GUUAACGGUCGUAGGCCAUGGAAACUAGGAGCACCAUUUCGCUGCCAGUGAAGAAAUGAACAAAGAAAAUCUGGGCCAGGCAGGCAUCAAUAGAAAUAGUCUUGCGCUCAACCAGAAAGUCUGUAAUCAUUUUAAGGGUA [A11G A91U], the self-cleavage stood at 1.22.

On to GUUAACGGUCGUAGGCCAUGGAAACUAGGAGCACCAUUUCGCUGCCAGUGAAGAAAUGAACAAAGAAAAUCUGGGCCAGGCAGGCAUCAAGAGAAAUAGUCUUGCGCUCAACCAGAAAGUCUGUAAUCAUUUUAAGGGUA [A11G A91G], for which the self-cleavage was found to be 0.73.

With GUUAACGGUCGUAGGCCAUGGAAACUAGGAGCACCAUUUCGCUGCCAGUGAAGAAAUGAACAAAGAAAAUCUGGGCCAGGCAGGCAUCAAAAGAAAUAGUCUUGCGCUCAGCCAGAAAGUCUGUAAUCAUUUUAAGGGUA [A11G A111G], the self-cleavage is 0.04.

For the variant GUUAACGGUCGUAGGCCAUGGAAACUAGGACCACCAUUUCGCUGCCAGUGAAGAAAUGAACAAAGAAAAUCUGGGCCAGGCAGGCAUCAAAAGAAAUAGUCUUGCGCUCAACCAGAAAGUCUGUAAUCAUUUUAAGGGUA [A11G G31C], the self-cleavage amounted to 1.04.

As to GUUAACGGUCGUAGGCCAUGGAAACUAGGAGCACCAUUUCGCUGCCAGUGAAGAAAUGAACAAAGAAAAUCUGGGCCAGGCAGGCAUCAAAAGAAAUAGUCUUGCGCUCAACCAGAAUGUCUGUAAUCAUUUUAAGGGUA [A11G A118U], the self-cleavage came to 0.2.

GUUAACGGUCGUAGGCCAUGGAAACUAGGAGCACCAUUUCGCUGCCAGUGAAGAAAUGAACAAAGAAAAUCUGGGCCAGGCAGGCAUCAAAAGAAAUAGUCUUGCGCUCAAUCAGAAAGUCUGUAAUCAUUUUAAGGGUA [A11G C112U]: the self-cleavage worked out at 0.05.

Regarding GUUAACGGUCGUAGGCCAUGGAAACUAGGAGCACCAUUUCGCUGCCAGUGAAGAAAUGAACAAAGAAAAUCUGGGCCAGGCAGGCAUCAAAAGAAAUAGUCUUGCGCUCAAACAGAAAGUCUGUAAUCAUUUUAAGGGUA [A11G C112A], the self-cleavage worked out at 0.02.

As to GUUAACGGUCGUAGGCCAUGGAAACUAGGAGCACCAUUUCGCUGCCAGUGAAGAAAUGAACAAAGAAAAUCUGGGCCAGGCAGGCAUUAAAAGAAAUAGUCUUGCGCUCAACCAGAAAGUCUGUAAUCAUUUUAAGGGUA [A11G C88U], the self-cleavage came to 1.54.

Turning to GUUAACGGUCGUAGGCCAUGGAAACUAGGAGCACCAUUUCGCUGCCAGUGAAGAAAUGAACAAAGAAAAUCUGGGCCAGGCAGGCAUCAAAAGAAAUAGUCUUGCGCUCAACCAGAAAGUCUGUAAUCCUUUUAAGGGUA [A11G A129C], the self-cleavage amounted to 0.66.

For the variant GUUAACGGUCGUAGGCCAUGGAAACUAGGAGCACCAUUUCGCUGCCAGUGAAGAAAUGAACAAAGAAAAUCUGGGCCAGGCAGGCAUCAUAAGAAAUAGUCUUGCGCUCAACCAGAAAGUCUGUAAUCAUUUUAAGGGUA [A11G A90U], the self-cleavage was determined as 1.69.

As to GUUAACGGUCGUAGGCCAUGGAAACUAGGAGCACCAUUUCGCUGCCAGUGAAGAAAUGAACAAAGAAAAUCUGGGCCAGGCAGGCAUCAGAAGAAAUAGUCUUGCGCUCAACCAGAAAGUCUGUAAUCAUUUUAAGGGUA [A11G A90G], the self-cleavage was 1.04.

Regarding GUUAACGGUCGUAGGCCAUGGAAACUAGGAGCACCAUUUCGCUGCCAGUGAAGAAAUGAACAAAGAAAAUCUGGGCCAGGCAGGCAUCAAAAGAAAUAGUCUUGCGCUCAACCAGAAAGUCUGUAAUCAUUUUAGGGGUA [A11G A135G], the self-cleavage was 1.41.

Regarding GUUAACGGUCGUAGGCCAUGGAAACUAGGAGCACCAUUUCGCUGCCAGUGAAGAAAUGAACAAAGAAAAUCUGGGCCAGGCAGGCAUCAAAAGAAAUAGUCUUGCGCUCAACCAGAAAGUCUGUAAUCAUUUUAUGGGUA [A11G A135U], the self-cleavage worked out at 0.99.

The values above are taken from the RNAGym collection of RNA variant scans (doi:10.7554/elife.90254).
